In patent US20250042994A1 (HAINAN SIMCERE ZAIMING PHARMACEUTICAL, published 2025):

T1: human CD19 on Raji cells (human, UniProt P15391 20-556)
T1 construct: whole, on cells
T1 sequence (looked up): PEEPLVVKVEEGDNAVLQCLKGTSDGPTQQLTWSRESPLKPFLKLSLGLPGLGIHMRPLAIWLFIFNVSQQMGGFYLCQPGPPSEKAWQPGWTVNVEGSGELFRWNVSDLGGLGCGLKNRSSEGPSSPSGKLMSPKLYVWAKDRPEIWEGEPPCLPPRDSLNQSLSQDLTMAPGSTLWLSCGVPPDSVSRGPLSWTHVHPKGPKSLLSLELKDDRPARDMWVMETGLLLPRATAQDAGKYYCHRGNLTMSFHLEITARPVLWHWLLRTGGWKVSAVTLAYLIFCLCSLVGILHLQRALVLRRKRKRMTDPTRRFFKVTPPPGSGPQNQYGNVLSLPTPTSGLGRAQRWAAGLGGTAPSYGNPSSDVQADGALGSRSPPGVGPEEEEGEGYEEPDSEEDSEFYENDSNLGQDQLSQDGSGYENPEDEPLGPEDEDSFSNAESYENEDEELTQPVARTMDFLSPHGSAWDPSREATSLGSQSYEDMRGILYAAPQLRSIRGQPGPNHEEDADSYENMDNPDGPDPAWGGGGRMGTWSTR

T2: cynomolgus monkey CD19 on peripheral blood B cells (cynomolgus monkey (Macaca fascicularis), UniProt A0A2K5W8L9 20-557)
T2 construct: whole, on cells; also called cynomolgus monkey B cells
T2 sequence: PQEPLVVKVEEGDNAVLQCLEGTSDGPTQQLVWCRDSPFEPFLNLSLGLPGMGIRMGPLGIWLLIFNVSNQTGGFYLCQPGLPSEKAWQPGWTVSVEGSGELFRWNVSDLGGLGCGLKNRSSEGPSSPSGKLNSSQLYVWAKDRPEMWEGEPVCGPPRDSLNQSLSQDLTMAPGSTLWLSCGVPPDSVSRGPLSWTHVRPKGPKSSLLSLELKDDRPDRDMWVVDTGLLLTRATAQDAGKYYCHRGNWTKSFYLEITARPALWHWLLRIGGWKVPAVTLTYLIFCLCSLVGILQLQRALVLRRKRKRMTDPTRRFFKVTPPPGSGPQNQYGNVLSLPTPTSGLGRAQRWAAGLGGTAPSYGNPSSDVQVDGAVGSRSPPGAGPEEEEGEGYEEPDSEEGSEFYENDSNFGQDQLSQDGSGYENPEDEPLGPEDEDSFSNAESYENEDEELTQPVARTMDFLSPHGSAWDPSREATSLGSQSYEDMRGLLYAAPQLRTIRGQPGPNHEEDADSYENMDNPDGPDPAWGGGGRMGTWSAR

T3: human CD19 on CHO-K1-human CD19 cells (human, UniProt P15391 20-556)
T3 construct: whole, on cells; also called CHO-K1-human CD19-2C8
T3 sequence (looked up): T1 sequence (looked up)

B1: F5.10.6 (antibody, human IgG1, V domains shown)
VH: DVQLQESGPGLVKPSQSLSLTCSVTDYSITSGYYWTWIRQFPGNKLEWMGYISYDGSTNYNPSLKNRFSITRDTSKNQFFLKLNSVIIEDTATYYCARDRMSTTWYFDVWGTGTTVTVSS
VL: DIVLTQSPASLAVSLGQRATISCRASESVDNYGISFMHWYQQKPGQPPKLLIYRASKTESGIPARFSGSGSRTDFTLTINPVETDDVATYYCQQSNKYPRTFGGGTKVEIK
notes: human-murine chimeric antibody, human IgG1
B2: F5.3.6 (antibody, human IgG1, V domains shown)
VH: DVQLQESGPGLVKPSQSQSLTCSVTGYSITSGYYWNWIRQFPGNKLEWMGYISYDGSNNYNPSLKNRISITRDTSKNQFFLKLNSVTTEDTVTYYCARAPLTGDRYWYFDVWGTGTTVTVSS
VL: DIVLTQSPASLAVSLGQRATISCRASQSVSTSSYSYMHWYQQKPGQTPKLLIKYASNLKSGVPARFSGSGSGTDFTLNIHPVEEEDTATYYCQHSWEIPPTFGGGTKLEIK
notes: as for B1
B3: F5.8.6 (antibody, human IgG1, V domains shown)
VH: QVQLHQPGAELVMPGASVTLSCKASGYTFTSYWMHWVKQRPGQGLEWIGEIDPSDSYTTYDQKFKGKATLTVDKFSSTAYMQFSSLTSEDSAVYYCARLTGNHLDYWGQGTTLTVSS
VL: DIVMTQSHKFMSSSVGDRVSITCKASQDVSPAVAWYQQKPGQSPKLLIYSTSYRNTGVPDRFTGSGSGTDFTFTISSVQAEDLAVYYCQQHYSIPLTFGAGTKLELK
notes: as for B1
B4: F5.2.9 (antibody, human IgG1, V domains shown)
VH: QVTLKESGPGILQPSQTLSLTCSFSGFSLSTFGLGVGWVRQPSGKGLEWLAHIWWDDDKYYNPALKSRVTVSKETSKNQVFFKIANVDTADSATYYCARLSRGLRRDVVYAMDHWGQGTSVTVSS
VL: DIQMTQTTSSLSASLGDRVTISCRASQDISNYLNWYQQKPDGSVKLLISYVSRLQSGVPSRFRGSGSGTDYSLTISNLDQEDIATYFCQQGIAFPYTFGGGTKLDIK
notes: as for B1
B5: F6.12.12 (antibody, human IgG1, V domains shown)
VH: DVQLQESGPGLVKPSQSLSLTCSVTGYSITSGYYWIWIRQFPGNKLEWMGYISYDASNKYKPSLKNRISITRDTSKNQFFLKLNSVTAEDTATYFCAREDLRGYFDVWGTGTSVTVSS
VL: DIVLTQSPASLAVSLGRRATISCRASQSVSTSGFSYMHWYQQKPGQPPNLLIKYASILQSGVPARFSGSGSGTDFILNIHPVEDVDTATYYCQHSWGIPFTFGSGTKLEIK
notes: as for B1
B6: F4.276.12 (antibody, human IgG1, V domains shown)
VH: EIQLQQSGPELVKPGASVKVSCKASGYAFSAYNMYWVKQSHGKSLEWIGYIDPYNGGTNYNQKFKGKATLTVDKSSSTAYMHLNSLTSEDSAVYYCARDGYEVTYWGQGTLVTVSA
VL: QIVLTQSPALMSASLGEEITLTCSASSSVTYMHWSQQKSGTSPRLLIYSTSNLASGVPSRFSGSGSGTFYSLTISSVEAEDAADYYCHQWSSYPWTFGGGTKLEIK
notes: as for B1
B7: F4.272.13 (antibody, human IgG1, V domains shown)
VH: QVQLKESGPGLVAPSQSLSITCTVSGFSLTDYGVSWIRQPPGKGLEWLGVIWGSETTFYNSALKSRLSISKDNSKSQLFLQMNSLQADDTAIYYCAKHHYYGGSFSMDYWGQGTSVTVSS
VL: DIQMTQTTSSLSASLGDRVTISCRASQDINNYLNWYQQKPDGTVKFLIYYTSRLHSGVPSRFSGSGSGTDYSLTISDLEQEDIATYFCQQGNTLPYTFGGGTKLEIK
notes: as for B1

Each binder was assayed against T1, human CD19 on Raji cells (assay: FACS on Raji cells).
Source text: (§1) The desired cells were scale-up cultured in a T-75 cell culture flask to the logarithmic growth phase. For the adherent cell CHO-K1, the medium was aspirated, the cells were washed 2 times with a PBS buffer, and then digested with trypsin. After the digestion was terminated, the cells were washed 2 times with a PBS buffer; and for suspension cell Raji, the supernatant of the medium was discarded by directly centrifugation, and the cell pellet was washed 2 times with PBS. After counting the cells in the previous step, the cell pellet was resuspended with [PBS+2% (w/w) BSA] blocking solution to 2×10⁶ cells/ml, and added to a 96-well FACS reaction plate at 50 μl/well, and then the sample to be tested was added at 50 μl/well, and incubated on ice for 2 h. The obtained mixture was centrifuged and washed 3 times with a PBS buffer. […] The obtained mixture was centrifuged and washed 5 times with a PBS buffer, and FACS (FACS Canto™, purchased from BD Company) was used for detection and result analysis. Data analysis was performed by software (FlowJo) to obtain the mean fluorescence intensity (MFI) of the cells. And then software (GraphPad Prism8) was used for analysis, data fitting, and EC50 value calculation. […] The same method was used to detect the binding of the chimeric antibodies to endogenous CD19-negative cells, MoLT4 cells (purchased from ATCC, CRL-1582), and CHO-K1 cells.

EC50 [nM] | Maximum mean fluorescence intensity | Binder
1.34 | 22100 | B1
3.19 | 22400 | B2
1.26 | 27300 | B3
2.79 | 17600 | B4
5.25 | 43300 | B5
0.78 | 23500 | B6
0.81 | 27600 | B7

These binders were tested against T2, cynomolgus monkey CD19 on peripheral … (assay: FACS, cynomolgus PBMC, CD20+ B cells).
Description: The monkey peripheral blood mononuclear cells were extracted from fresh cynomolgus monkey peripheral blood (purchased from Shanghai Medicilon Inc.) according to the instructions of Ficoll-Paque Plus (purchased from GE Healthcae, catalog number: 171440-02). After the cell suspension was centrifuged, the cells were resuspended in PBS containing 1% BSA, and then the cells were counted. […] The mixture was incubated for 1 h at room temperature. After washing the cells three times, APC-labeled secondary antibody anti-human IgG Fc (catalog number: 409306, purchased from Biolegend) was added. After incubation at room temperature in the dark for 30 minutes, the cells were washed 5 times, gently resuspended with PBS containing 1% BSA, and detected and analyzed by FACS (FACS Canto™, purchased from BD Company), in which CD20 was used as a marker of B cells to gate the CD20-positive B cell population, the proportion of the chimeric antibody-labeled positive cells was analyzed, and the proportion of the chimeric antibody positive cell population to B cell population was calculated after treatments with the chimeric antibodies at the concentrations of 100 nM, 10 nM and 1 nM, respectively.

Proportion of chimeric antibody positive cells to B cells (%) at 1 nM [%] | Proportion of chimeric antibody positive cells to B cells (%) at 10 nM [%] | Proportion of chimeric antibody positive cells to B cells (%) at 100 nM [%] | Binder
61 | 97 | 99 | B1
2 | 7 | 12 | B2
5 | 13 | 18 | B3
93 | 98 | 98 | B4
91 | 97 | 97 | B5
2 | 1 | 2 | B6
1 | 2 | 9 | B7

Each binder was assayed against T4, monkey CD19 on HEK293T-monkey CD19 cells (monkey) (assay: FACS on HEK293T-monkey CD19 cells).
T4 construct: whole, on cells
Description: as §1, with “After” for “The desired cells were scale-up cultured in a T-75 cell culture flask to the logarithmic growth phase. For the adherent cell CHO-K1, the medium was aspirated, the cells were washed 2 times with a PBS buffer, and then digested with trypsin. After”
HEK293T-monkey CD19 cells were subjected to FACS detection and data analysis according to the method in example 5.2. […] The same method was used to detect binding of the chimeric antibodies to HEK293T cells.

EC50 [nM] | Maximum mean fluorescence intensity | Binder
4.98 | 99900 | B1
20.7 | 26100 | B2
5.7 | 43800 | B3
2.82 | 81500 | B4
0.94 | 99100 | B5
 | 597 | B6
3.86 | 40500 | B7

What follows are binders tested against T3, human CD19 on CHO-K1-human CD19 cells (assay: FACS on CHO-K1-human CD19 cells).
Source text: as §1

EC50 [nM] | Maximum mean fluorescence intensity | Binder
2.6 | 47700 | B1
3.62 | 46900 | B2
3.5 | 53600 | B3
1.02 | 34000 | B4
0.84 | 63300 | B5
1.05 | 50200 | B6
0.77 | 55300 | B7
